Earlier results in article PMC3955120 (Journal of chromatography. B, Analytical technologies in …, 2013).
Where no end group is shown, it is not given here.

Settings: humans, i.v. infusion of kisspeptin-54, RIA, monoexponential decline

## kisspeptin-54 (GTSLSPPPESSGSPQQPGLSAPHSRQIPAPQGAVLVQREKDLPNYNWNSFGLRF-NH2; ends and bridges not checked; UniProt Q15726 68-121, looked up)
  half-life of post steady-state plasma kisspeptin-IR: 27.6 min
